Results taken from patent US20190119389A1 (POTENZA THERAPEUTICS, published 2019).

T1: Cyno NRP-1 His (cynomolgus monkey, UniProt O14786 22-856 (human entry), limits assumed)
T1 construct: Recombinant monomeric protein; also called cynomolgus monkey NRP-1-His; cNRP-1; not shown: His tag
T1 chain: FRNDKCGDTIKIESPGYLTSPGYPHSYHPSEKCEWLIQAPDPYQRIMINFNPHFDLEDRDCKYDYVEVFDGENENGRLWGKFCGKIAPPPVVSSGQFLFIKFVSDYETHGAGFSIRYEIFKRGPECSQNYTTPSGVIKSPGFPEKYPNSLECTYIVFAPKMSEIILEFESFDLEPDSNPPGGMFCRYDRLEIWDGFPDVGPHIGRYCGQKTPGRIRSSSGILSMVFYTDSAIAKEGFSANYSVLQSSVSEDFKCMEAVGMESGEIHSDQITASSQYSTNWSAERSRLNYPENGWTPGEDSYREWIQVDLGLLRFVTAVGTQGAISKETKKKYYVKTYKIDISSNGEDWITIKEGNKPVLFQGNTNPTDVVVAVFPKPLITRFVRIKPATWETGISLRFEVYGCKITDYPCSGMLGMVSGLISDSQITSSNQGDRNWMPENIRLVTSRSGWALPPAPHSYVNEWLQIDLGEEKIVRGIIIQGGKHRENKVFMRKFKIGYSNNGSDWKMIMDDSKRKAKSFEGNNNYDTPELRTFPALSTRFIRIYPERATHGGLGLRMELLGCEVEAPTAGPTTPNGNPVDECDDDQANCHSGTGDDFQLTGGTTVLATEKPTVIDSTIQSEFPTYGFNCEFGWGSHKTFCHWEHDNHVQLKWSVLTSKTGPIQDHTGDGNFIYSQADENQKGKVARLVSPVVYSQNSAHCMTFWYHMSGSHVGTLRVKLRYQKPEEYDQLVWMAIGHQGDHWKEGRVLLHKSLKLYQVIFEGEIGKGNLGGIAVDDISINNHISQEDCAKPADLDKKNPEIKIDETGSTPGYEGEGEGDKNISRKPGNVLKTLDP


Legend:
recombinant human NRP-1 [1] = biological target: T2, recombinant human NRP-1 (human, UniProt O14786 22-856, limits assumed); test: blocking ELISA, average of n=2: SEMA3A coated, biotinylated human NRP-1 preincubated with IgG4 antibody; competitor SEMA3A
T2 construct: also called biotinylated human NRP-1
Target sequence in this assay (O14786 22-856 V179A limits assumed): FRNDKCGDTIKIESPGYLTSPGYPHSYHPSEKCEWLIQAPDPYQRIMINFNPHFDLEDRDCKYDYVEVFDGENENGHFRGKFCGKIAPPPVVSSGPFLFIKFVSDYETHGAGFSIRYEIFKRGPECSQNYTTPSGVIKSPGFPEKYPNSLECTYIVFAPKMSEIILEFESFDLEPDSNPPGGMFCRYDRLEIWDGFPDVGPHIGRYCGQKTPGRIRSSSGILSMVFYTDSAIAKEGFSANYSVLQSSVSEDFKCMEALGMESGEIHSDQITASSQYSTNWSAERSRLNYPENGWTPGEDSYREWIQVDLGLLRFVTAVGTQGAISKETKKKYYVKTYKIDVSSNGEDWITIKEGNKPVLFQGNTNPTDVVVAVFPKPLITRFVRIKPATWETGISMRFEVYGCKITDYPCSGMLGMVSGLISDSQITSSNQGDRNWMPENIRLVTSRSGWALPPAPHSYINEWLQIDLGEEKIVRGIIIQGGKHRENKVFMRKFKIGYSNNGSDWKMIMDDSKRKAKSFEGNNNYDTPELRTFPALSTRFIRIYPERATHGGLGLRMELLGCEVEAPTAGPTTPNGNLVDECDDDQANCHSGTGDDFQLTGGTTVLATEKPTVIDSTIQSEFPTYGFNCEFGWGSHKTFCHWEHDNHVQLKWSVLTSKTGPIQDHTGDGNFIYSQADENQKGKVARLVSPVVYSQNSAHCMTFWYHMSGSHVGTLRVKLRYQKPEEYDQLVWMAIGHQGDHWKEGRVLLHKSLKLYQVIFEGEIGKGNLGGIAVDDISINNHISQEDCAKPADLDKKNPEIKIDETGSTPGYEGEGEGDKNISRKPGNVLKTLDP

Mouse NRP-1 His = biological target: T3, Mouse NRP-1 His (mouse, UniProt P97333 22-856); test: BLI Octet QKe, IgG4 S228P on AHC sensor, multi-concentration monomeric antigen, global 1:1 fit
T3 construct: Recombinant monomeric protein; also called mNRP-1; not shown: His tag
T3 sequence (P97333 22-856 limits assumed): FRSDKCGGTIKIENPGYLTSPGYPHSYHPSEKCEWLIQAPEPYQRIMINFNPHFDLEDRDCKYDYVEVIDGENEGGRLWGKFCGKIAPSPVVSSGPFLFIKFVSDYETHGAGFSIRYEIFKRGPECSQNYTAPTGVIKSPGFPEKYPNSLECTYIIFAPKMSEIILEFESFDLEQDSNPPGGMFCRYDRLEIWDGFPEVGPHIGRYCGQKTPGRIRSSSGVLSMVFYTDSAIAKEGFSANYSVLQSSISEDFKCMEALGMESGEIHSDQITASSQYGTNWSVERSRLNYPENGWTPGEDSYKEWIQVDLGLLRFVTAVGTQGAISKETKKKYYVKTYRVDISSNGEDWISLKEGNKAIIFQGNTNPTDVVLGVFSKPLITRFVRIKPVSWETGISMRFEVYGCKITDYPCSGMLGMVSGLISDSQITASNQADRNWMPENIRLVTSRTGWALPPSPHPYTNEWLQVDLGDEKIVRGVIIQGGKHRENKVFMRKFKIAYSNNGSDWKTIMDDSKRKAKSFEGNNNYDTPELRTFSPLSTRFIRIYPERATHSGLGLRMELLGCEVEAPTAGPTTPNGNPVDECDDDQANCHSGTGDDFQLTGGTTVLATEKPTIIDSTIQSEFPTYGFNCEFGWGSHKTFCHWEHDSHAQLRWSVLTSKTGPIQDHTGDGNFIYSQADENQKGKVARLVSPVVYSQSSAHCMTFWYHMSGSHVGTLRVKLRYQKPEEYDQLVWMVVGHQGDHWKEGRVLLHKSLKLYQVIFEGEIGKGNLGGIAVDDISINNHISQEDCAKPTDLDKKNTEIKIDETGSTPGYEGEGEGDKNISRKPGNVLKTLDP

Human NRP-1 His = biological target: T4, Human NRP-1 His (human, UniProt O14786 22-856); test: as above
T4 construct: Recombinant monomeric protein; Biotinylated in the MSD-SET assay; also called hNRP-1; not shown: His tag
T4 sequence (O14786 22-856 V179A limits assumed): as the sequence (O14786 22-856 V179A limits assumed) above

Cyno NRP-1 His = biological target: T1, Cyno NRP-1 His; test: as above
recombinant human NRP-1 [2] = biological target: T2, recombinant human NRP-1; test: blocking ELISA, average of n=2: human NRP-1 coated, VEGFA added with IgG4 antibody; competitor VEGFA
[3] = biological target: T5, Recombinant human NRP-1-Fc fusion protein, a1a2b1b2 domains (human, UniProt O14786 22-583, limits assumed); test: BLI Octet QKe, antibody on AHC sensor, NRP-1-Fc fragment 500 nM
T5 construct: Only the named domains of hNRP-1 are in the construct; not shown: Fc

[4] = biological target: T6, Recombinant human NRP-1-Fc fusion protein, a1a2b1 domains (human, UniProt O14786 22-424, limits assumed); test: as above
T6 construct: Only the named domains of hNRP-1 are in the construct; not shown: Fc

[5] = biological target: T7, Recombinant human NRP-1-Fc fusion protein, a2b1b2 domains (human, UniProt O14786 147-583, limits assumed); test: as above
T7 construct: Only the named domains of hNRP-1 are in the construct; not shown: Fc
T7 sequence (O14786 147-583 V179A limits assumed): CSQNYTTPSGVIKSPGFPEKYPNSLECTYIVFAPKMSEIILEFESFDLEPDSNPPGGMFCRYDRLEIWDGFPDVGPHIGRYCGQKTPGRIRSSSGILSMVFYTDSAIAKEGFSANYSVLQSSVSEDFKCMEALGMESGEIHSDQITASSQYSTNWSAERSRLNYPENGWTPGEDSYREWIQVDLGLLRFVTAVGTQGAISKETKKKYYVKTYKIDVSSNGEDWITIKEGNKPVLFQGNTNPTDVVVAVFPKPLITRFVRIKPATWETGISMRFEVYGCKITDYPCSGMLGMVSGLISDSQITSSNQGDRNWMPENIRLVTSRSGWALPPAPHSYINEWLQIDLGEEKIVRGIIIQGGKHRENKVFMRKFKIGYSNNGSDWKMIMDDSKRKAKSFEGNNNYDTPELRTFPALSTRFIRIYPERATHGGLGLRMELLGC

Row | Binder | IC50 (recombinant human NRP-1 [1]) [nM] | Kd (Mouse NRP-1 His) [nM] | Kd (Human NRP-1 His) [nM] | Kd (Cyno NRP-1 His) [nM] | IC50 (recombinant human NRP-1 [2]) [nM] | binding result [3] | binding result [4] | binding result [5]
1 | MAB3 IgG4 S228P (antibody, V domains shown) VH: QAQLVQSGAEVKKPGASVKVSCKASGYTFSRYYMHWVRQAPGQGLEWMGIINPLGGSTLYAQKFQGRVTMTRDTSTSTVYMELSSLRSEDTAVYYCARDLGYYGSGMHAWGQGTLVTVSS VL: DIQMTQSPSSVSASVGDRVTITCRASQGISRWLAWYQQKPGKAPKLLIYAASSLQSGVPSRFSGSGSGTDFTLTISSLQPEDFATYYCQQANLLPFTFGGGTKVEIKR | 2 | 4.4 | 3.7 | 7.3 |  |  |  | 
2 | MAB13 IgG4 S228P (antibody, V domains shown) VH: QVQLQQWGAGLLKPSETLSLTCAVYGGSFRGYYWEWIRQPPGKGLEWIGEISHSGSTNYNPSLKSRVTISVDTSKNQFSLKLSSVTAADTAVYYCARARPYREPYGMDVWGQGTTVTVSS VL: DIQLTQSPSSVSASVGDRVTITCRASQDISSWLAWYQQKPGKAPKLLIYAASSLQSGVPSRFSGSGSGTDFTLTISSLQPEDFATYYCQQELAFPRTFGGGTKVEIKR | 0.9 | 3.7 | 0.96 | 0.94 | 2.9 |  |  | 
3 | MAB14 IgG4 S228P (antibody, V domains shown) VH: QVQLQQWGAGLLKPSETLSLTCAVYGGSFRGYYWEWSRQPPGKGLEWIGEISHSGSTNYNPSLKSRVTISVDTSKNQFSLKLSPVTAADTAVYYCARARPYREPYGMDVWGQGTTVTVSS VL: DIQLTQSPSSVSASVGDRVTITCRASQDISSWLAWYQQKPGKAPKLLIYAASSLQSGVPSRFSGSGSGTDFTLTISSLQPEDFATYYCQQELAFPRTFGGGTKVEIKR | 0.6 | 2.7 | 0.87 | 0.74 | 2.5 |  |  | 
4 | MAB4 IgG4 S228P (antibody, V domains shown) VH: QVQLVQSGAEVKKPGASVKVSCKASGYTFSRYYMHWVRQAPGQGLEWMGIINPLGGSTLYAQKFQGRVTMTRDTSTSTVYMELSSLRSEDTAVYYCARDLGYYGSGMHVWGQGTLVTVSS VL: DIQMTQSPSSVSASVGDRVTITCRASQGISRWLAWYQQKPGKAPKLLIYAASSLQSGVPSRFSGSGSGTDFTLTISSLQPEDFATYYCQQANLLPFTFGGGTKVEIKR | 2.3 | 2.3 | 3.1 | 4.5 |  |  |  | 
5 | SEC3 (antibody, human IgG1, kappa, V domains shown, Appendix A gives 144 as light chain and 145 as heavy chain; also called pan-anti-NRP-1 antibody) VH: EVQLVESGGGLVQPGGSLRLSCAASGFTISGYGIHWVRQAPGKGLEWVAYIYPDSGYTDYADSVKGRFTISADTSKNTAYLQMNSLRAEDTAVYYCAREDFRNRRRLWYVMDYWGQGTLVTVSS VL: DIQMTQSPSSLSASVGDRVTITCRASQDVSTAVAWYQQKPGKAPKLLIYSASFLYSGVPSRFSGSGSGTDFTLTISSLQPEDFATYYCQQAWAYLPTFGQGTKVEIKR |  |  |  |  |  | binds | binds | 
6 | MAB5 IgG4 S228P (antibody, V domains shown) VH: QVQLVQSGAEVKKPGASVKVSCKASGYTFTSYYMHWVRQAPGQGLEWMGIINPQGGDTSYAQKFQGRVTMTRDTSTSTVYMELSSLRSEDTAVYYCARDRGMYYASGFGPWGQGTLVTVSS VL: EIVMTQSPGTLSLSPGERATLSCRASQSVSSSYLAWYQQKPGQAPRLLIYGASNRATGIPDRFSGSGSGTDFTLTISRLEPEDFAVYYCQQLSSFPITFGGGTKVEIKR | 2.9 | 6.6 | 8.4 | 12 |  |  |  | 
7 | anti-NRP Antibody SEC10 (antibody, human IgG1, kappa, V domains shown) VH: EVQLVESGGGLVQPGGSLRLSCAASGFTFSSYAMSWVRQAPGKGLEWVSQISPAGGYTNYADSVKGRFTISADTSKNTAYLQMNSLRAEDTAVYYCARGELPYYRMSKVMDVWGQGTLVTVSS VL: DIQMTQSPSSLSASVGDRVTITCRASQYFSSYLAWYQQKPGKAPKLLIYGASSRASGVPSRFSGSGSGTDFTLTISSLQPEDFATYYCQQYLGSPPTFGQGTKVEIKR |  |  |  |  |  | binds |  | binds
8 | MAB12 IgG4 S228P (antibody, V domains shown) VH: EVQLLESGGGLVQPGGSLRLSCAASGFTFSSVAMVWVRQAPGKGLEWVSAISGSGGATYYADSVEGRFTISRDNSKNTLYLQMNSLRAEDTAVYYCAKDPGYDSSRYYYSNYGMDVWGQGTTVTVSS VL: DIQMTQSPSSLSASVGDRVTITCRASQSISSYLNWYQQKPGKAPKLLIYGASSLQSGVPSRFSGSGSGTDFTLTISSLQPEDFATYYCQQTYSLYTFGGGTKVEIKR | 1.2 | 0.16 | 0.12 | 0.19 | 3.2 |  |  | 
